Data as given in the supplement of paper PMC9170038.

Key:
MS2 coat protein [1] = assay: apparent KD of MS2 coat protein, switch OFF state (with FMN for OFF switches, without FMN for ON switches); designed switch direction (-1 OFF switch, 1 ON switch): -1; higher = weaker reporter binding; settings: FMN input: 0 or 200 uM; Eterna round: R93 (includes R88 designs)
How it was run: (§1)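 In 100 mM Tris-HCl pH 7.5 with 80 mM KCl and 4 mM MgCl2, and without or with constant ligand, SNAP-549-labelled MS2 coat protein was titrated in twofold steps from 0.7 or 1.5 nM to 3 µM. Per-step times went from 0.8–1.5 h down to 10–20 min. The RNA switches were transcribed on-chip from Illumina sequencing clusters, and apparent KD is the per-design median of normalised cluster binding-curve fits.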

MS2 coat protein [2] = assay: apparent KD of MS2 coat protein, switch ON state; designed switch direction (-1 OFF switch, 1 ON switch): -1; higher = weaker reporter binding; settings: FMN input: 0 or 200 uM; Eterna round: R93 (includes R88 designs)
How it was run: as §1

Sequence | apparent KD of MS2 coat protein (MS2 coat protein [1]) | apparent KD of MS2 coat protein (MS2 coat protein [2])
AUCGAUCGAGGAUAUACAUGAGGAUCACCCAUGUAAAAAAAAAAAAAGGCCUCAGGACGUAGAAGGCGACGCAA [JR_Exc003_Sub402] | 22.6 nM | 16.3 nM
CGCAAGUCAGGAUAUUCGACAGGUAAAUCAGUGGAUCAGAAGGAGAAGGGACAUGAGGAUCACCCAUGUAUGUA [JR_Exc004_Sub407] | 23.1 nM | 49.4 nM
AAUAAUGGAGGAUAUACUAAAGAAAUGAAAAGAAAUAAAGAACAUGAGGAUCACCCAUGUAGAAGGCCAAAUAA [Khamure] | 27.8 nM | 26 nM
AGAAAACAUGAGGAUCACCCAUGUGAGGAUAUGUAAAAGAAAAGAAAAGAAAGAAGAAACAGAAGGCACAAGAA [Nynetjer] | 45.6 nM | 24.9 nM
AGAAAACAUGAGGAUCACCCAUGUCAGGAUAUCCUGCGGUGAUACACACCGCGUUGUCGGAGAAGGGACAGGGA [Tiesesmari] | 81.9 nM | 65.6 nM
AAAGGACGAGGAUAUACAUGAGGAUCACCCAUGUAAGAAGCAUAAUAAAAUAACUUAUGUAGAAGGCGUCCAAA [Mat - Exclusion 3 - Eli mod - D94] | 69 nM | 26 nM
AGUUGGCGAGGAUAUACAUGAGGAUCACCCAUGUGAAAGAAAAACUCGAAAGAGAAAAGUAGAAGGCGCUGACA [Mat - Exclusion 3 - Eli mod - D93] | 37.6 nM | 16.8 nM
ACAGUUACAGGAUAUACAAGGAAAAAUAAAAAUAAAAUUCAACAUGAGGAUCACCCAUGUAGAAGGGUAACUGA [Ex2 Design 200: Random 15] | 32.1 nM | 30 nM
AAAAGGUGAGGAUAUACAUGAGGAUCACCCAUGUAGAAAGGAAGUGUAAAAAAAAAGUGUAGAAGGCAUCAUGA [MS2 Riboswitches On Chip Exclusion 3 wbt3] | 48 nM | 39.2 nM
AAAAAACAUGAGGAUCACCCAUGUGAGGAUAUGCAAAACCCAAAUAAAAAGAGAAAAAGCAGAAGGCACAACAA [wbt round 1 mod 3] | 13.8 nM | 15.7 nM
AACUGACAUGAGGAUCACCCAUGUCAGGAUAUGAUUUGACGAAAAAAAACACGUCAUAUCAGAAGGGACAUGGA [Design 85: Sub-opt X] | 39.5 nM | 23.7 nM
AAGAAGUGAGGAUAUUCGGAUAGGAAAACGAAAACCUAUCCGAAGAAGGCACAUGAGGAUCACCCAUGUAAAAA [Mat - Exaclusion 4 - Eli mod - D41] | 54.3 nM | 36.7 nM
GAAGAACAUGAGGAUCACCCAUGUGAGGAUAUACAGAAUGGAAUAAAAUAACAAGAAAGUAGAAGGCACAAGAA [Ex 1 May 39] | 38.4 nM | 32.1 nM
AGUUGGCGAGGAUAUACAUGAGGAUCACCCAUGUGAGAGAAUAAAGUGAGAAAGAAAAGUAGAAGGCGCUCACA [JL Lego Mod 16] | 45.1 nM | 60.3 nM
ACAUGUACAGGAUAUACGUGGAAAAAAAAAAAAAAAAAACUACAUGAGGAUCACCCAUGUAGAAGGGUACAUGA [Ex2 Design 194: Random 12C] | 37 nM | 26.5 nM
AACAUGUUAGGAUAUCAAAGAAAAGAAAAGAAAGAAAAGAAUGAGAAGGAACAUGAGGAUCACCCAUGUAAGAA [EteRNA is fun!] | 22.1 nM | 23 nM
AACAGUACAGGAUAUACAUGAGGAUCACCCAUGUCACAGAAAUAAAACAAAAAUAAAAGUAGAAGGGUACUGGA [Ruby 41] | 36.7 nM | 31.2 nM
AAGAAGAUAGGAUAUACAAAAUAAAAGAAAAGAAAGAAAGAACAUGAGGAUCACCCAUGUAGAAGGAUCAAGAA [Sehetepibre Amenemhat I] | 17.7 nM | 25 nM
AGGAAACAUGAGGAUCACCCAUGUGAGGAUAUUUGAAAGAAAAGAAAAGAAAGAAGAAGAAGAAGGCACAAGAA [Merneith] | 20.5 nM | 17.6 nM
GGAAAGUCAGGAUAUGGAUAAUAAAUACAAAUAGAAACAAACCAGAAGGGACAUGAGGAUCACCCAUGUAAACA [Exclusion 4 Electric] | 22.6 nM | 35.3 nM
GAAAACAGAGGAUAUACAAAAUUGACACGAAAGGUGCAAAAACAUGAGGAUCACCCAUGUAGAAGGCUGAAGAA [Meechl MS2 Ex2 3] | 21.1 nM | 25.3 nM
GCAUGCGAAGGAUAUACAUGAGGAUCACCCAUGUGAGAGAAAAAAGUGAGAAAGAAAAGUAGAAGGUCGUGUGG [salish99-ex3-94] | 70.9 nM | 40.7 nM

Sequence | apparent KD of MS2 coat protein (MS2 coat protein [1]) | apparent KD of MS2 coat protein (MS2 coat protein [2])
AAGAAGUAAGGAUAUACAAGAAAGAAAGAAAAGAAAAGAAAACAUGAGGAUCACCCAUGUAGAAGGUACUAGAA [EteRNA is fun!] | 14.9 nM | 24.1 nM
AAAAUACAUGAGGAUCACCCAUGUUAGGAUAUCGGAUAAAUAAAAUAAAAUAAAAUAACGAGAAGGGACAAUAA [Exclusion1 Malc#2] | 31.6 nM | 24.6 nM
AUCAUGUUAGGAUAUAUAAGAAAAGAAAAGAAAGAAAAGAAAUAGAAGGAACAUGAGGAUCACCCAUGUAAGAA [EteRNA is fun!] | 23.1 nM | 17.5 nM
AAAAUGUCAGGAUAUGUACGAAAAAAUAAAAAAAUAAAAGUACAGAAGGGACAUGAGGAUCACCCAUGUCAGGG [EX4 392: Minimal 4] | 74.6 nM | 97.9 nM
AGUCUGAGAGGAUAUACAUGGGAAAAAAAAGUAAGAUCCCUACAUGAGGAUCACCCAUGUAGAAGGCUCUGACA [Ex2 Design 143: Sub-opt 7] | 17.9 nM | 27.4 nM
AAGAAGCUAGGAUAUACAUGAGGAUCACCCAUGUAAAAGAAAGAGGGAAAAGAGAAAAGUAGAAGGAGCAAGAA [Cleopatra I] | 25.4 nM | 27.8 nM
AACAGUACAGGAUAUACAUGAGGAUCACCCAUGUGAAUAAAUAGUGGCGUACCACAAAGUAGAAGGGUACUGGA [Mat - Exclusion 3 - JL mod - D25] | 136 nM | 27.4 nM
AACUAGUCAGGAUAUACGAACAUGUCAAAAAACAUGAAGGGACAUGAGGAUCACCCAUGUAGAAGGGACUAGCA [74%, Web mod - With 3 less G's] | 209 nM | 60.5 nM
AUAGGCCAAGGAUAUACAUGAGGAUCACCCAUGUAAAUAACUCGAUCAAAAUAAACAAGUAGAAGGUGGAAUAA [JR_Exc003_Sub204] | 29.4 nM | 25.1 nM
AAGAACUCAGGAUAUACAUGAGGAUCACCCAUGUAAAAGAAAGAAAAGGGAAAGAAAAGUAGAAGGGAGAAGAA [Neferkheperure-waenre Amenhotep IV] | 36.2 nM | 32.7 nM
AGCUAGCGAGGAUAUACGAACAUGUCAAAAGACGUGAAGGGACAUGAGGAUCACCCAUGUAGAAGGCGCUAGCA [JL 74% mod 5] | 144 nM | 41.1 nM
CUCGUGUCAGGAUAUGGAAGGCCGUUUGAUUAACGAGGGUACUAGAAGGGACAUGAGGAUCACCCAUGUAAAAA [Maonis] | 90.4 nM | 81.5 nM
AGAAAGGUAGGAUAUACGAAAAAAAAGGGUAGAAAAAAAACACAUGAGGAUCACCCAUGUAGAAGGACCAAAGA [Mat - Exclusion 2 - Tesla mod - D31] | 47.5 nM | 35.2 nM
AAAAAACAUGAGGAUCACCCAUGUGAGGAUAUCGGUAGUGAGGGUAUAGUGUCAAUAGUGAGAAGGCGCAUAAA [Brourd 613 Mod 13 - Jieux - Exclusion 1] | 28 nM | 26.3 nM
AAUGCGGCAGGAUAUACAUGAGGAUCACCCAUGUAGAUCAGAUAUAUGGGAAAACCAUGUAGAAGGGCCGCAAA [Ex 3May 60] | 29.6 nM | 109 nM
AAGAAGUUAGGAUAUACAAAAUAAAAGAAAAGAAAGAAAGAACAUGAGGAUCACCCAUGUAGAAGGGACAAGAA [Nubkaure Amenemhat II] | 33.9 nM | 59.2 nM
AGCUAGUGAGGAUAUACGAACAUGUCAAAAGACGUGAAGGAACAUGAGGAUCACCCAUGUAGAAGGCACUAGCA [Mat - Exclusion 2 - JL-Eli mod - D54] | 14.6 nM | 17.2 nM
CUCAAGUGAGGAUAUCAGUAGUAAAAAAAUAAAAUUACUACUGAGAAGGCACAUGAGGAUCACCCAUGUGUCUU [EX4 333: Super Stable 33] | 11.1 nM | 14.1 nM
AAAAAGGUAGGAUAUGCAAAAAAUAAUUUAAAAAAAAAAAAACAUGAGGAUCACCCAUGUAGAAGGACCAAAAA [Design 2.0] | 28.8 nM | 25.9 nM
AAAAAGGUAGGAUAUACAUGAGGAUCACCCAUGUGAAAAGAAAAUAAGAAAAGAAAGUGUAGAAGGACCAAAAA [JL JSci Mod In the Red] | 44.1 nM | 33 nM
AAAAAACAUGAGGAUCACCCAUGUAAGGAUAUGCGAAAAUAAAAUAAAAUAAAAUAAAGCAGAAGGUACAAAAG [Mat - Exclusion 1 - Eli mod - D3] | 49.5 nM | 28.8 nM
GGUUGGCGAGGAUAUACAUGAGGAUCACCCAUGUGAGAGGAAAAAGUGAGGAGGAGAAGUAGAAGGCGCUGACG [salish99-ex3-22] | 138 nM | 29.6 nM
